Columns and labels:
[1] = target: T1, human PD-L1 expressed on HEK293A cells (human, UniProt Q9NZQ7 19-290); test: FACS on HEK293A/human PD-L1 cells, serially diluted antibody (protocol of Example 4)
T1 construct: Full-length cDNA expressed stably; also called HEK293A/human PD-L1 cells; HEK293A/human PD-L1
Protocol: (§1) To determine whether the anti-PD-L1 antibodies bound to human, monkey or mouse PD-L1s expressed on HEK293A cells, a cell-based binding assay was performed by FACS using the HEK293A cells stably overexpressing human, monkey and mouse PD-L1s respectively as generated in Example 1. Briefly, 10⁵ HEK293A cells in 100 μl culture medium were seeded onto each well of the 96-well plates, to which added 50 μl serially diluted anti-PD-L1 antibodies. After incubated at 4° C. for 1 hour, plates were washed 3 times with PBST. Then, APC coupled Goat Anti-Mouse IgG (Cat #:405308, BioLegend, US) diluted 500× was added to the plates. After incubation at 4° C. for 1 hour, the plates were washed with PBS for 3 times and then cell fluorescence was monitored using a FACS machine (BD).

[2] = target: T2, monkey PD-L1 expressed on HEK293A cells (monkey (cynomolgus), UniProt Q9NZQ7 19-290 (human entry)); test: FACS on HEK293A/monkey PD-L1 cells, serially diluted antibody (protocol of Example 4)
T2 construct: Full-length cDNA expressed stably; also called HEK293A/monkey PD-L1 cells; HEK293A/monkey PD-L1
T2 sequence (Q9NZQ7 other isoform, or with tags, fused parts or gaps limits assumed): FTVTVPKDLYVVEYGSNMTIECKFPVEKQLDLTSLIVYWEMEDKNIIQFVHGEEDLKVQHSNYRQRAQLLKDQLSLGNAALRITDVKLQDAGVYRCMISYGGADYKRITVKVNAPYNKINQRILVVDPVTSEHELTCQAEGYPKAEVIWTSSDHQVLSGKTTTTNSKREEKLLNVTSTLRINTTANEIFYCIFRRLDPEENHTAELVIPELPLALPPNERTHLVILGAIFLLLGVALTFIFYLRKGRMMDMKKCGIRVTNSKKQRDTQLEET
Protocol: as §1

[3] = target: T3, monkey PD-L1 (ECD)-his (monkey, UniProt Q9NZQ7 19-238 (human entry)); test: ELISA on coated monkey PD-L1 (ECD)-his
T3 construct: Bought protein; also called Cat #:90251-C08H, Sino Biological; not shown: His tag
T3 sequence (Q9NZQ7 other isoform, or with tags, fused parts or gaps): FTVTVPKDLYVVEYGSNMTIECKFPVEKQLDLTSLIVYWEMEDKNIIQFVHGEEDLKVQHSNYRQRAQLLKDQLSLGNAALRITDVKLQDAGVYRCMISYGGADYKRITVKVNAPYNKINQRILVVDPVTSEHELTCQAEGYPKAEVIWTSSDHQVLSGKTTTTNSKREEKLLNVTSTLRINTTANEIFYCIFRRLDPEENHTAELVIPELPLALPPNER
Protocol: (§2) Species-cross-reactivities of the anti-PD-L1 mAbs to monkey or mouse PD-L1s were further assessed by direct ELISA. Briefly, 96-well ELISA plates were coated with 500 ng/ml monkey PD-L1 (ECD)-his (Cat #:90251-C08H, Sino Biological, CN) or mouse PD-L1(ECD)-his (Cat #:50010-M08H, Sino Biological, CN), 100 μl per well, then added and incubated with 100 μl serially diluted anti-PD-L1 antibodies (starting at 40 μg/ml). The plates were then added and incubated with Goat anti-human IgG conjugated with HRP (Cat #:31410, Thermal, US) for 1 hour at room temperature. Plates were developed with freshly prepared Ultra-TMB (Cat #:555214, BD, US) for 5 minutes at room temperature, and absorbance was read on a SpectraMax^R i3X reader (Molecular Devies, US) at 450 nm.

[4] = target: T4, mouse PD-L1(ECD)-his (mouse, UniProt Q9EP73 19-239); test: direct ELISA on coated mouse PD-L1(ECD)-his
T4 construct: Bought protein; also called mouse PD-L1-his; Cat #:50010-M08H, Sino Biological; not shown: His tag
T4 sequence (Q9EP73 19-239): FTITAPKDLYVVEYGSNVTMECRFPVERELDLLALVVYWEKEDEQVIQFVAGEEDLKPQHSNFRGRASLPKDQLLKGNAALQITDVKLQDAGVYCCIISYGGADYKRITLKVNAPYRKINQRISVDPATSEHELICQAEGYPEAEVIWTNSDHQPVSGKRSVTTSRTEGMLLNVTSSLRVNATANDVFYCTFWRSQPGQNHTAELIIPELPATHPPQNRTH
Protocol: as §2

[5] = target: T1, human PD-L1 expressed on HEK293A cells; test: FACS blocking assay on HEK293A/human PD-L1 cells; blocked ligand PD1-hFc (protocol of Example 6)
Protocol: Briefly, 10⁵ HEK293A/human PD-L1 cells in 100 μl culture medium were seeded onto each well of 96-well plates, to which added 50 μl serially diluted anti-PD-L1 antibodies. After incubated at 4° C. for 1 hour, the plates were washed 3 times with PBST. […] After incubation at 4° C. for 1 hour, the plates were washed with PBST for 3 times, and added with PE coupled Goat Anti-human IgG (Cat #:PAI-86078, Thermofisher, US) diluted 500×. After incubation at 4° C. for 1 hour, the plates were washed with PBST for 3 times and then cell fluorescence was monitored using a FACS machine (BD).

[6] = target: T5, mouse PD-L1 expressed on HEK293A cells (mouse, UniProt Q9EP73 19-290); test: FACS on HEK293A/mouse PD-L1 cells, serially diluted antibody (protocol of Example 4)
T5 construct: Full-length cDNA expressed stably; also called HEK293A/mouse PD-L1 cells; HEK293A/mouse PD-L1
T5 sequence (Q9EP73 19-290 limits assumed): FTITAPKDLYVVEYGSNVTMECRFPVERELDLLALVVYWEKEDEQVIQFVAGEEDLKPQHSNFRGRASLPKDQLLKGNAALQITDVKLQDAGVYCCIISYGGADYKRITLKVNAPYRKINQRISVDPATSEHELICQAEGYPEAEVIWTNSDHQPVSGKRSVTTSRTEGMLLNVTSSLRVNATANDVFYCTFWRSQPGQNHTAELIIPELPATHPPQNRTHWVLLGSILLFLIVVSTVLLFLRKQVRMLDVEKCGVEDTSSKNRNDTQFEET
Protocol: as §1

[7] = target: T6, human PD-L1 (ECD)-his (human, UniProt Q9NZQ7 19-238); test: ELISA on coated human PD-L1 (ECD)-his
T6 construct: Bought protein; it is not tied to the bought construct by a sentence of its own; also called recombinant human PD-L1(ECD)-his; Cat #:10084-H08H, Sino Biological; not shown: His tag
T6 sequence (Q9NZQ7 19-238): as the sequence (Q9NZQ7 other isoform, or with tags, fused parts or gaps) above, with T33A, S34A, N62S, Q68R, R82Q, L173F, A185T, I192T, L215H counted along it
Protocol: The chimeric anti-PD-L1 antibodies were further characterized for their abilities of binding to human PD-L1, monkey PD-L1 and mouse PD-L1. Briefly, ELISA plates were coated with 500 ng/ml human PD-L1 (ECD)-his (Cat #:10084-H08H, Sino Biological, CN), 100 μl per well, at 4° C. overnight. The wells were blocked with 200 μl blocking buffer (PBS containing 1% BSA, 1% goat serum and 0.05% Tween 20) for 2 hours at room temperature, added and incubated with 100 μl serially diluted anti-PD-L1 antibodies (starting at 40 μg/ml) for 1 hour at room temperature. The plates were washed for 3 times with PBST (PBS+0.05% Tween 20), added with Goat-anti-human IgG-HRP (Cat #:31410, Thermal, US) diluted 5000×, and incubated for 1 hour at room temperature. Plates were developed with freshly prepared Ultra-TMB (Cat #:555214, BD, US) for 5 minutes at room temperature. Absorbance was read on a SpectraMax^R i3X reader (Molecular Devies, US) at 450 nm.

T1 sequence (Q9NZQ7 19-290 limits assumed): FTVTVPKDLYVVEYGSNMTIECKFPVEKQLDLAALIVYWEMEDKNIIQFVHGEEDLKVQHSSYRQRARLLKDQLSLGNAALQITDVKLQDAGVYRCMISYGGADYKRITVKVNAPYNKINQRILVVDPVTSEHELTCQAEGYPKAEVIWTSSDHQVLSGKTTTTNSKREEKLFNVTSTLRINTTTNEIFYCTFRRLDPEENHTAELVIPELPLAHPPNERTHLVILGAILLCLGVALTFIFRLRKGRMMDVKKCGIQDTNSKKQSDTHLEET

Binder	EC50 (read off the curve) [1] [µg/mL]	EC50 (read off the curve) [2] [µg/mL]	EC50 [3] [nM]	binding result [4]	IC50 (read off the curve) [5] [µg/mL]	binding result [6]	EC50 [7] [nM]
chimeric 56E5 antibody (antibody, human IgG1, kappa, N297A, V domains shown) VH: EVQLQESGPGLAKPSQTLSLTCSVTGYSITSDYWNWIRKFPGNKLEYMGYISYTGSTYYNPSLKSRISITRDTSKNQYYLQLNSVTTEDTATYYCARYRDWDVRAMDYWGQGTSVTVSS VL: DIVMTQSPSSLTVTAGEKVTMNCKSSQSLLISGNQKNFLTWYQQKPGQPPKLLIYWASTRESGVPDRFTGSGSGTDFTLTISSVQAEDLAVYYCQNDFGFPFTFGSGTKLEIKR	~0.05	~0.04	2.05	no binding (tested: starting at 40 µg/ml)	~0.03	no binding (tested: LOG Con. about 4.6 (about 40000 ng/ml))	0.348
chimeric 3C2 antibody (antibody, human IgG1, kappa, N297A, V domains shown) VH: QVQLNQSGPELMKAGTSVKISCKASGYSFTDYHVNWVKQRPGQGLEWIGWIFPGSGRTFYTDKFKGKATLTVDLSFTTAYIMLNSLTSEDSAVYFCATDYGTSGYGLVYWGQGTSVTVSS VL: DIQMTQSSSYLSVSLGGRVTISCKASDRINNWLAWYQQKPGNAPRLLISGATSLETGVPSRFSGSGSGKDYTLSITSLQTEDVAVYYCQQYWNIPFTFGSGTKLEIKR	~0.1	~0.1	0.172	no binding (tested: starting at 40 µg/ml)	~0.2	no binding (tested: LOG Con. about 4.6 (about 40000 ng/ml))	0.0456

Source: US20220298244A1 (BEIJING MABWORKS BIOTECH, published 2022)
